Biological target: the molecule itself
Experiment: gold nanoparticle aggregation (colour change); histidine-tagged peptides (100 uM in PBS) on NTA-Ni gold nanoparticles, alone or mixed; colour change after 15 minutes

B1: MUC1_(ecd-EXT) peptide (peptide, UniProt P15941 1101-1148, looked up)
peptide: VQLTLAFREGTINVHDVETQFNQYKTEAASRYNLTISDVSVSDVPFPF
notes: MUC1, human; also called shifted frame peptide; N-1101-1148-C; source: synthetic peptide
binding result: binds

B2: MUC1_(SAD (self-aggregation domain)) peptide (peptide, UniProt P15941 1084-1109, looked up)
peptide: GGFLGLSNIKFRPGSVVVQLTLAFRE
notes: MUC1, human; also called N-1084-1109-C; source: synthetic peptide
binding result: binds
